Experimental data taken from publication PMC3399781 (Structure (London, England : 1993), 2010).

Biological target: the molecule itself
Experiment: AUC

B1: 2GS mGRFT (GRFT with GSGS inserted between Ser16 and Gly17) (natural protein)
chain: SLTHRKFGGSGGSPFSGSGSGLSSIAVRSGSYLDAIIIDGVHHGGSGGNLSPTFTFGSGEYISNMTIRSGDYIDNISFETNMGRRFGPYGGSGGSANTLSNVKVIQINGSAGDYLDSLDIYYEQY
  Kd: 1170 µM
